Assays:
[1] = target: ΔN complex (Syb49–96:SyxH3:SNAP-25) (rat) (UniProt P63045); assay: fluorescence polarisation
[2] = target: ΔN complex (Syb49–96:SyxH3:SNAP-25) (rat) (UniProt P63045); assay: ITC

Substance	kon [1]	Kd [2]	dH [2]
Syb1–96 V39A, V42A, S28C, labeled (from UniProt P63045 1-96) (domain or fragment)	263000 M⁻¹ s⁻¹	–	–
Syb F77A (from UniProt P63045 1-96) (domain or fragment)	–	0.8 nM	-18.8 kcal/mol
